Publication PMC1500868 (Nucleic Acids Research, 2006)

Target: T1, GST-SAP30L (human, UniProt Q9HAJ7 1-183)
T1 sequence (looked up): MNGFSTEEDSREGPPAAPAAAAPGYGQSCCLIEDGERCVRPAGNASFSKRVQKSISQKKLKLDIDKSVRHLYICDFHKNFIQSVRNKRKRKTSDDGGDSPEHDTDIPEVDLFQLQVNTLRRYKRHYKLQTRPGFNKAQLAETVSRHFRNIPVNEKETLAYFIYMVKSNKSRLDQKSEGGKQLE
Experiment: pull-down

fold change of interaction against full-length SAP30L: > 2 fold
B1: in vitro translated N-terminally deleted SAP30L (SAP30L 61–183) (domain or fragment, human, UniProt Q9HAJ7 61-183, looked up)
chain: KLDIDKSVRHLYICDFHKNFIQSVRNKRKRKTSDDGGDSPEHDTDIPEVDLFQLQVNTLRRYKRHYKLQTRPGFNKAQLAETVSRHFRNIPVNEKETLAYFIYMVKSNKSRLDQKSEGGKQLE
modifications: 35S-methionine label
